Publication PMC10397247
Like-named read-outs stand apart in the source and are kept apart here.

Experiments:
Assay in all cases: two-hybrid library CCmax;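 also: natural log of median RNA to DNA barcode read ratio; higher means stronger binding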
4H906-AA = target: T1, 4H906-AA; conditions: mean of both orientations
T1 chain: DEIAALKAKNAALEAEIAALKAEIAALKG

4H993-AA = target: T2, 4H993-AA; conditions: mean of both orientations
T2 chain: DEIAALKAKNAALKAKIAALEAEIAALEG

4H794-AA = target: T3, 4H794-AA; conditions: mean of both orientations
T3 chain: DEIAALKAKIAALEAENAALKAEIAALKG

4H566-AA = target: T4, 4H566-AA; conditions: mean of both orientations
T4 chain: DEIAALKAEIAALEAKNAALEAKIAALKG

4H678-AA = target: T5, 4H678-AA; conditions: mean of both orientations
T5 chain: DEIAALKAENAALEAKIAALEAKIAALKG

4H48-AA = target: T6, 4H48-AA
T6 chain: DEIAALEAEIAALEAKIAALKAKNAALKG

4H881-AA = target: T7, 4H881-AA; conditions: mean of both orientations
T7 chain: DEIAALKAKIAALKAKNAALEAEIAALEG

4H717-AA = target: T8, 4H717-AA; conditions: mean of both orientations
T8 chain: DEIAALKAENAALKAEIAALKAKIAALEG

N6-AA = target: T9, N6-AA; conditions: mean of both orientations
T9 chain: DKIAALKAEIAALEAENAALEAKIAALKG

4H605-AA = target: T10, 4H605-AA; conditions: mean of both orientations
T10 chain: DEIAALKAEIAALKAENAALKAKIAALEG

N5-AA = target: T11, N5-AA; conditions: mean of both orientations
T11 chain: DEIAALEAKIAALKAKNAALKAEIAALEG

4H2505-AA = target: T12, 4H2505-AA; conditions: mean of both orientations
T12 chain: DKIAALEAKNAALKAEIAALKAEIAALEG

4H234-AA = target: T13, 4H234-AA; conditions: mean of both orientations
T13 chain: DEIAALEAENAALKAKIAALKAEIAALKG

4H3655-AA = target: T14, 4H3655-AA; conditions: mean of both orientations
T14 chain: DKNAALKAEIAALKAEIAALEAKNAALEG

4H2354-AA = target: T15, 4H2354-AA; conditions: mean of both orientations
T15 chain: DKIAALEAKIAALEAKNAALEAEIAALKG

4H2575-AA = target: T16, 4H2575-AA; conditions: mean of both orientations
T16 chain: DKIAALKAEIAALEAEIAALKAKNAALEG

4H1352-AA = target: T17, 4H1352-AA; conditions: mean of both orientations
T17 chain: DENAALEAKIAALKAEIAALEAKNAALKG

4H2949-AA = target: T18, 4H2949-AA; conditions: mean of both orientations
T18 chain: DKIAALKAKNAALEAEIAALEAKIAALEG

4H2277-AA = target: T19, 4H2277-AA; conditions: mean of both orientations
T19 chain: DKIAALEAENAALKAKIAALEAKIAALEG

4H3921-AA = target: T20, 4H3921-AA; conditions: mean of both orientations
T20 chain: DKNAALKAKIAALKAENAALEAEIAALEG

4H317-AA = target: T21, 4H317-AA; conditions: mean of both orientations
T21 chain: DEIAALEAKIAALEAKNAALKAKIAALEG

4H2754-AA = target: T22, 4H2754-AA; conditions: mean of both orientations
T22 chain: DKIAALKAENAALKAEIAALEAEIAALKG

4H342-AA = target: T23, 4H342-AA; conditions: mean of both orientations
T23 chain: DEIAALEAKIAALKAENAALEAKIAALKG

4H3112-AA = target: T24, 4H3112-AA; conditions: mean of both orientations
T24 chain: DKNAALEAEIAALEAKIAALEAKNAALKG

4H2393-AA = target: T25, 4H2393-AA; conditions: mean of both orientations
T25 chain: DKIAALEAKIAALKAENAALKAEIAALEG

4H1867-AA = target: T26, 4H1867-AA; conditions: mean of both orientations
T26 chain: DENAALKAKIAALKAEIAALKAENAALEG

4H2078-AA = target: T27, 4H2078-AA; conditions: mean of both orientations
T27 chain: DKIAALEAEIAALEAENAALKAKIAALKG

4H2190-AA = target: T28, 4H2190-AA; conditions: mean of both orientations
T28 chain: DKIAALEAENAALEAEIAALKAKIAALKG

4H1636-AA = target: T29, 4H1636-AA; conditions: mean of both orientations
T29 chain: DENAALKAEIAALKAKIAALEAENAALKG

4H335-AA = target: T30, 4H335-AA; conditions: mean of both orientations
T30 chain: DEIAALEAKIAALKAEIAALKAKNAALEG

4H2466-AA = target: T31, 4H2466-AA
T31 chain: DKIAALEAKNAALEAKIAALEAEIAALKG

4H2151-AA = target: T32, 4H2151-AA; conditions: mean of both orientations
T32 chain: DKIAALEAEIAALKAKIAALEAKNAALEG

4H2165-AA = target: T33, 4H2165-AA; conditions: mean of both orientations
T33 chain: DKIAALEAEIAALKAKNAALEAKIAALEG

4H2883-AA = target: T34, 4H2883-AA; conditions: mean of both orientations
T34 chain: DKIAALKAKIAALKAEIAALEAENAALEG

4H429-AA = target: T35, 4H429-AA; conditions: mean of both orientations
T35 chain: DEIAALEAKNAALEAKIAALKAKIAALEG

4H3343-AA = target: T36, 4H3343-AA; conditions: mean of both orientations
T36 chain: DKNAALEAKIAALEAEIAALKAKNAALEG

4H3427-AA = target: T37, 4H3427-AA; conditions: mean of both orientations
T37 chain: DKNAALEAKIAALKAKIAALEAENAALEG

4H3627-AA = target: T38, 4H3627-AA; conditions: mean of both orientations
T38 chain: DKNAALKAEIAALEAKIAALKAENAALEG

4H2944-AA = target: T39, 4H2944-AA; conditions: mean of both orientations
T39 chain: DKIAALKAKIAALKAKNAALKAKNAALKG

4H2617-AA = target: T40, 4H2617-AA; conditions: mean of both orientations
T40 chain: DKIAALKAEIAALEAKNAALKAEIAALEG

4H780-AA = target: T41, 4H780-AA; conditions: mean of both orientations
T41 chain: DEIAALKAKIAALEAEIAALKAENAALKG

4H3844-AA = target: T42, 4H3844-AA; conditions: mean of both orientations
T42 chain: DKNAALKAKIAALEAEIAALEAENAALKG

4H454-AA = target: T43, 4H454-AA
T43 chain: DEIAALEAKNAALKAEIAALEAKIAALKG

4H2837-AA = target: T44, 4H2837-AA; conditions: mean of both orientations
T44 chain: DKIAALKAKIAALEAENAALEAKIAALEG

4H1552-AA = target: T45, 4H1552-AA; conditions: mean of both orientations
T45 chain: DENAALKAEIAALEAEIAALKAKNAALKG

4H2729-AA = target: T46, 4H2729-AA; conditions: mean of both orientations
T46 chain: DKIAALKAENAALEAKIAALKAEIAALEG

4H1842-AA = target: T47, 4H1842-AA
T47 chain: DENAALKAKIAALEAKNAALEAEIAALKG

4H1401-AA = target: T48, 4H1401-AA; conditions: mean of both orientations
T48 chain: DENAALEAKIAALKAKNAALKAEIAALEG

4H2642-AA = target: T49, 4H2642-AA; conditions: mean of both orientations
T49 chain: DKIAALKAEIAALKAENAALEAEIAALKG

4H1324-AA = target: T50, 4H1324-AA
T50 chain: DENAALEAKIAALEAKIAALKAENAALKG

4H3606-AA = target: T51, 4H3606-AA; conditions: mean of both orientations
T51 chain: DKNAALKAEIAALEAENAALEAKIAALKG

## DEIAALEAEIAALEAKIAALKAKNAALKG [4H48-AA]
4H906-AA
  interaction score: -1.25
4H993-AA
  interaction score: 0.666
4H794-AA
  interaction score: -1.49
4H566-AA
  interaction score: -0.519
4H678-AA
  interaction score: -0.779
4H48-AA
  interaction score: 1.11
4H881-AA
  interaction score: 0.161
4H717-AA
  interaction score: -1.37
N6-AA
  interaction score: 1.34
4H605-AA
  interaction score: -1.62
N5-AA
  interaction score: 0.994

## DENAALEAKIAALEAKIAALKAENAALKG [4H1324-AA]
4H2505-AA
  interaction score: -1.2
4H234-AA
  interaction score: -2.21
4H3655-AA
  interaction score: -0.51
4H2354-AA
  interaction score: -1.59
4H2575-AA
  interaction score: 0.676
4H1352-AA
  interaction score: 0.674
4H2949-AA
  interaction score: -1.16
4H2277-AA
  interaction score: -1.35
4H3921-AA
  interaction score: -1.15
4H317-AA
  interaction score: -1.41
4H906-AA
  interaction score: -1.42
4H2754-AA
  interaction score: -1.3
4H342-AA
  interaction score: -1.05
4H3112-AA
  interaction score: 0.0224
4H993-AA
  interaction score: 1.28
4H2393-AA
  interaction score: -0.744
4H1867-AA
  interaction score: 0.462
4H794-AA
  interaction score: -1.34
4H2078-AA
  interaction score: 1.78
4H2190-AA
  interaction score: -1.14
4H1636-AA
  interaction score: -0.551
4H566-AA
  interaction score: -1.31
4H335-AA
  interaction score: -0.376
4H2466-AA
  interaction score: -1.2
4H2151-AA
  interaction score: -0.928
4H2165-AA
  interaction score: -1.47
4H2883-AA
  interaction score: 1.32
4H678-AA
  interaction score: -1.52
4H48-AA; mean of both orientations
  interaction score: 1.07
4H429-AA
  interaction score: -1.18
4H3343-AA
  interaction score: 0.278
4H881-AA
  interaction score: -1.69
4H3427-AA
  interaction score: 0.0395
4H717-AA
  interaction score: -1.26
4H605-AA
  interaction score: -1.44
4H3627-AA
  interaction score: 0.372
4H2944-AA
  interaction score: -1.01
4H2617-AA
  interaction score: -0.287
4H780-AA
  interaction score: 0.567
4H3844-AA
  interaction score: 2.11
4H454-AA; mean of both orientations
  interaction score: -0.814
4H2837-AA
  interaction score: -1.14
4H1552-AA
  interaction score: 1.17
4H2729-AA
  interaction score: -1.35
4H1842-AA
  interaction score: -1.92
4H1401-AA
  interaction score: -1.6
4H2642-AA
  interaction score: -0.934
4H1324-AA
  interaction score: 1.4
4H3606-AA
  interaction score: -1.02

## DEIAALEAKNAALKAEIAALEAKIAALKG [4H454-AA]
4H906-AA
  interaction score: 0.951
4H993-AA
  interaction score: 1.82
4H794-AA
  interaction score: -0.535
4H566-AA
  interaction score: 0.133
4H678-AA
  interaction score: 2.11
4H48-AA; mean of both orientations
  interaction score: -0.839
4H881-AA
  interaction score: 0.451
4H717-AA
  interaction score: 0.898
N6-AA
  interaction score: 1.89
4H605-AA
  interaction score: -1.24
4H780-AA
  interaction score: -1.48
4H454-AA
  interaction score: 1.45
N5-AA
  interaction score: 0.301
